Laboratory results reported in article PMC9913320, “Development of ^99mTc-Hynic-Adh-1 Molecular Probe Specifically Targeting N-Cadherin and Its Preliminary Experimental Study in Monitoring Drug Resistance of Non-Small-Cell Lung Cancer” (Cancers, 2023).
Like-named read-outs stand apart in the source and are kept apart here.

Key:
[1] = In vitro stability in PBS; type: physicochemical; settings: PBS pH 7.4, room temperature
Procedure: (§1) In vitro stability studies of ^99mTc-HYNIC-ADH1 were performed in FBS as well as PBS solution. A total of 50 μL of ^99mTc-HYNIC-ADH1 was mixed with 950 μL of FBS (or PBS), and its radioactivity was measured after being incubated at room temperature for 0.5, 1, 2, 4, 6 and 24 h, respectively.
(§2) For stability assessments, ^99mTc-HYNIC-ADH-1 (3.7 MBq) was incubated in PBS (pH 7.4) or FBS for 24 h. […] The radiochemical purities were 98.51%, 98.50%, 97.97%, 98.02%, 98.81%, 98.09% and 98.09% in FBS at room temperature at 0.5, 1, 2, 3, 6, 12 and 24 h, respectively.

[2] = In vitro stability in FBS; type: in vitro ADME; settings: room temperature
Procedure: as §1, §2

[3] = Partition coefficient (Log D), 1-octanol/PBS; type: physicochemical; settings: 1-octanol and PBS (pH 7.4), n = 3
Procedure: Partition coefficients (Log D) of ^99mTc-HYNIC-ADH-1 were measured through the assessment of the distribution of radioactivity in 1-octanol and phosphate buffer in a 2 mL centrifuge tube. A 10 µL ^99mTc-HYNIC-ADH-1 solution was added to a vial containing 1 mL each of 1-octanol and PBS (pH 7.4). After vortexing for 10 min, the vial was centrifuged for 10 min to ensure complete separation of the layers. Then, 10 µL of each layer was pipetted into separate test tubes, and the counts were measured using a γ counter. Partition coefficients are shown as the log counts in 1-octanol vs. PBS layers (n = 3).

[4] = Biodistribution in normal mice; type: in vivo, C57/BL6 mice; settings: for tissue uptake at 0.5 h / tissue uptake at 1 h / tissue uptake at 2 h / tissue uptake at 4 h: i.v.; for tissue uptake at 0.5 h: 30 min; for tissue uptake at 1 h: 60 min; for tissue uptake at 2 h: 120 min; for tissue uptake at 4 h: 240 min
Procedure: The radiotracer (0.1 mL, 0.74 MBq) was injected intravenously into normal C57/BL6 mice and xenograft models as previously described (n = 4 per group per time) via the tail vein. After different time intervals (30, 60, 120 and 240 min), the mice were sacrificed by cervical dislocation, and their blood, tumors and major organs (brain, heart, lung, liver, spleen, kidney, stomach, intestine, muscle, bone and skin) were harvested and weighed. The radioactivity of each sample was measured with a γ-counter. Values are shown as the percentage of the injected dose per gram (%ID/g), which corrected for background and decay to maintain consistency.

PC9 tumor = assay: Small animal SPECT/CT imaging, ROI analysis; type: in vivo, BALB/c nude mice; settings: non-blocked, 1 h
Procedure: (§3) All animal research was performed in accordance with the Zhejiang University Institutional Animal Care and Use Committee guidelines. PC9 and PC9GR cells (2 × 10^6 cells per mice) were injected subcutaneously into the flanks of 2- to 4-week old BALB/c nude mice (left: PC9GR, right: PC9). The cells were allowed to grow 3–5 weeks until tumors were 1 ± 0.5 cm^3 in volume. Normal C57/BL6 mice (aged 6 to 8 wks old) were obtained from the Animal Center of the First Affiliated Hospital of Zhejiang University. All animals were maintained with free access to food and water and used a standard diet, bedding and environment.
(§4) Xenograft models were imaged using a nanoScan SPECT/CT (Mediso, Hungary) in vivo imaging system and anesthetized with 2% isoflurane before imaging. Mice in the non-blocked group (n = 4) were injected via tail vein with 3.7 MBq (100 μL) of radiotracer and imaged at different time points (1, 2 and 6 h). In the blocked group, 100 μL excess ADH-1 was injected through the tail vein 30 min in advance, and then the same volume and dose of imaging agent were injected for 1 h after imaging.
(§5) Three-dimensional ROIs were delineated along the edge of the tumor using SPECT/CT analysis software. Spherical ROIs of 0.03 cm^3 were delineated in organs or tissues (liver and muscle). The radiation intensity of each region was measured, and the tumor/non-tumor ratio was calculated.

PC9GR tumor = assay: Small animal SPECT/CT imaging, ROI analysis; type: in vivo, BALB/c nude mice; settings: 1 h
Procedure: as §3, §4, §5

[5] = mouse, blood, iv, 0.74 MBq, normal C57/BL6 mice, read-out: Biodistribution, Blood
[6] = mouse, bone, iv, 0.74 MBq, normal C57/BL6 mice, read-out: Biodistribution, Bone
[7] = mouse, brain, iv, 0.74 MBq, normal C57/BL6 mice, read-out: Biodistribution, Brain
[8] = mouse, heart, iv, 0.74 MBq, normal C57/BL6 mice, read-out: Biodistribution, Heart
[9] = mouse, intestine, iv, 0.74 MBq, normal C57/BL6 mice, read-out: Biodistribution, Intestine
[10] = mouse, kidney, iv, 0.74 MBq, normal C57/BL6 mice, read-out: Biodistribution, Kidney
[11] = mouse, liver, iv, 0.74 MBq, normal C57/BL6 mice, read-out: Biodistribution, Liver
[12] = mouse, lung, iv, 0.74 MBq, normal C57/BL6 mice, read-out: Biodistribution, Lung
[13] = mouse, muscle, iv, 0.74 MBq, normal C57/BL6 mice, read-out: Biodistribution, Muscle
[14] = mouse, skin, iv, 0.74 MBq, normal C57/BL6 mice, read-out: Biodistribution, Skin
[15] = mouse, spleen, iv, 0.74 MBq, normal C57/BL6 mice, read-out: Biodistribution, Spleen
[16] = mouse, stomach, iv, 0.74 MBq, normal C57/BL6 mice, read-out: Biodistribution, Stomach

CC(=O)N[C@H]1CSSC[C@@H](C(=O)NCCNC(=O)c2ccc(NN)nc2)NC(=O)[C@H](C(C)C)NC(=O)[C@H](C)NC(=O)[C@H](Cc2c[nH]cn2)NC1=O [^99mTc-HYNIC-ADH-1, metal not drawn]
radiochemical purity ([1]; 0.5 h): 99.01%
radiochemical purity ([1]; 1 h): 98.81%
radiochemical purity ([1]; 2 h): 98.55%
radiochemical purity ([1]; 3 h): 99.02%
radiochemical purity ([1]; 6 h): 98.52%
radiochemical purity ([1]; 12 h): 98.01%
radiochemical purity ([2]; 0.5 h): 98.51%
radiochemical purity ([2]; 1 h): 98.50%
radiochemical purity ([2]; 2 h): 97.97%
radiochemical purity ([2]; 3 h): 98.02%
radiochemical purity ([2]; 6 h): 98.81%
radiochemical purity ([2]; 12 h): 98.09%
logD [3]: -2.45 ± 0.1
crossing of the blood–brain barrier ([4]; from biodistribution: no obvious distribution in the brain): could not cross the blood–brain barrier
tissue uptake at 0.5 h [4, 5]: 3.31 ± 0.37 %ID/g
tissue uptake at 1 h [4, 5]: 1.23 ± 0.07 %ID/g
tissue uptake at 2 h [4, 5]: 0.84 ± 0.19 %ID/g
tissue uptake at 4 h [4, 5]: 0.58 ± 0.08 %ID/g
tissue uptake at 0.5 h [4, 6]: 1.45 ± 0.11 %ID/g
tissue uptake at 1 h [4, 6]: 0.61 ± 0.14 %ID/g
tissue uptake at 2 h [4, 6]: 0.58 ± 0.3 %ID/g
tissue uptake at 4 h [4, 6]: 0.44 ± 0.15 %ID/g
tissue uptake at 0.5 h [4, 7]: 0.18 ± 0.05 %ID/g
tissue uptake at 1 h [4, 7]: 0.09 ± 0.02 %ID/g
tissue uptake at 2 h [4, 7]: 0.1 ± 0.02 %ID/g
tissue uptake at 4 h [4, 7]: 0.08 ± 0.05 %ID/g
tissue uptake at 0.5 h [4, 8]: 1.71 ± 0.3 %ID/g
tissue uptake at 1 h [4, 8]: 0.49 ± 0.29 %ID/g
tissue uptake at 2 h [4, 8]: 0.43 ± 0.07 %ID/g
tissue uptake at 4 h [4, 8]: 0.32 ± 0.04 %ID/g
tissue uptake at 0.5 h [4, 9]: 2.96 ± 0.3 %ID/g
tissue uptake at 1 h [4, 9]: 2.14 ± 0.43 %ID/g
tissue uptake at 2 h [4, 9]: 1.78 ± 0.2 %ID/g
tissue uptake at 4 h [4, 9]: 1.26 ± 0.33 %ID/g
tissue uptake at 5 min ([4]; mouse, kidney, iv, 0.74 MBq, normal C57/BL6 mice, 5 min): 22.1 ± 1.15 %ID/g
tissue uptake at 0.25 h ([4]; mouse, kidney, iv, 0.74 MBq, normal C57/BL6 mice, 15 min): 12 ± 0.73 %ID/g
tissue uptake at 0.5 h [4, 10]: 12.1 ± 0.47 %ID/g
tissue uptake at 1 h [4, 10]: 9.01 ± 0.76 %ID/g
tissue uptake at 2 h [4, 10]: 6.46 ± 0.3 %ID/g
tissue uptake at 4 h [4, 10]: 6.16 ± 0.51 %ID/g
tissue uptake at 0.5 h [4, 11]: 1.95 ± 0.17 %ID/g
tissue uptake at 1 h [4, 11]: 1.06 ± 0.2 %ID/g
tissue uptake at 2 h [4, 11]: 0.86 ± 0.15 %ID/g
tissue uptake at 4 h [4, 11]: 0.68 ± 0.12 %ID/g
tissue uptake at 0.5 h [4, 12]: 3.83 ± 0.12 %ID/g
tissue uptake at 1 h [4, 12]: 1.7 ± 0.14 %ID/g
tissue uptake at 2 h [4, 12]: 1.54 ± 0.56 %ID/g
tissue uptake at 4 h [4, 12]: 1.08 ± 0.27 %ID/g
tissue uptake at 0.5 h [4, 13]: 1.55 ± 0.8 %ID/g
tissue uptake at 1 h [4, 13]: 0.44 ± 0.08 %ID/g
tissue uptake at 2 h [4, 13]: 0.52 ± 0.29 %ID/g
tissue uptake at 4 h [4, 13]: 0.42 ± 0.21 %ID/g
tissue uptake at 0.5 h [4, 14]: 3.45 ± 0.44 %ID/g
tissue uptake at 1 h [4, 14]: 1.9 ± 0.58 %ID/g
tissue uptake at 2 h [4, 14]: 1.69 ± 0.4 %ID/g
tissue uptake at 4 h [4, 14]: 1.05 ± 0.18 %ID/g
tissue uptake at 0.5 h [4, 15]: 1.25 ± 0.1 %ID/g
tissue uptake at 1 h [4, 15]: 0.73 ± 0.24 %ID/g
tissue uptake at 2 h [4, 15]: 0.53 ± 0.12 %ID/g
tissue uptake at 4 h [4, 15]: 0.45 ± 0.11 %ID/g
tissue uptake at 0.5 h [4, 16]: 2.24 ± 0.42 %ID/g
tissue uptake at 1 h [4, 16]: 0.94 ± 0.23 %ID/g
tissue uptake at 2 h [4, 16]: 0.66 ± 0.09 %ID/g
tissue uptake at 4 h [4, 16]: 1.28 ± 0.43 %ID/g
T/N (tumor to adjacent muscle radioactivity intensity, SPECT/CT ROI) (PC9 tumor): 3.66 ± 0.78
T/N (tumor to adjacent muscle radioactivity intensity, SPECT/CT ROI) (PC9GR tumor; blocked group (excess unlabeled ADH-1 30 min in advance)): 3.69 ± 0.50
T/N (tumor to adjacent muscle radioactivity intensity, SPECT/CT ROI) (PC9GR tumor; non-blocked): 7.73 ± 0.54
